Test results as given in patent US20240059797A1 (GRITSTONE BIO, published 2024).
Positions count from the first letter of the chain named.

B1: G2(2E07) scFv (scFv, V domains shown)
VH: QVQLVQSGAEVKKPGASVKVSCKASGGTFSSATISWVRQAPGQGLEWMGWIYPNSGGTVYAQKFQGRVTMTRDTSTSTVYMELSSLRSEDTAVYYCAATEWLGVWGQGTTVTVSS
VL: DIQMTQSPSSLSASVGDRVTITCRASQSISTWLAWYQQKPGKAPKLLIYAASSLRSGVPSRFSGSGSGTDFTLTISSLQPEDFATYYCQQSYNTPYTFGQGTKLEIK
B2: G2(2E03) scFv (scFv, V domains shown)
VH: EVQLLQSGAEVKKPGSSVKVSCKASGGTFSSYAISWVRQAPGQGLEWMGWINPNSGGTISAPNFQGRVTMTRDTSTSTVYMELSSLRSEDTAVYYCARANWLDYWGQGTLVTVSS
VL: B1 VL with T31R, S53T, L54V, R55Q, N93S
B3: G2(2C06) scFv (scFv, V domains shown)
VH: QVQLVQSGAEVKKPGASVKVSCKSSGYSFDSYVVNWVRQAPGQGLEWMGWINPNSGGTNYAQKFQGRVTMTRDTSTSTVYMELSSLRSEDTAVYYCARDWVLDYWGQGTLVTVSS
VL: B1 VL with S28T, T31S, R55Q, N93S, Y96F, Q100P, L104V, E105D
B4: G2(1C02) scFv (scFv, V domains shown)
VH: B3 VH with S24A, S28T, D30T, V33G, V34I, N35S, D99G, V101E, D103G
VL: B1 VL with T31N, R55Q, N93S, T94A, Q100P, L104V, E105D
B5: G2(1B10) scFv (scFv, V domains shown)
VH: EVQLLESGAEVKKPGASVKVSCKASGYTFTSYGISWVRQAPGQGLEWMGWINPYSGGTNYAQKLQGRVTMTRDTSTSTVYMELSSLRSEDTAVYYCARANWLDYWGQGTLVTVSS
VL: B1 VL with T31S, S53T, R55Q, N93S, T94S, Q100P, L104V, E105D
B6: G2(1G01) scFv (scFv, V domains shown)
VH: B5 VH with E1Q, L5V, E6Q, I51M, Y54N, L64F, A99G, N100E
VL: B1 VL with S28T, T31S, R55Q, N93G, T94V, L104V
B7: G2(2H10) scFv (scFv, V domains shown)
VH: QVQLVQSGAEVKKPGASVKVSCKASGYSFTRYNMHWVRQAPGQGLEWMGWINPNSGGTNYAQKFQGRVTMTRDTSTSTVYMELSSLRSEDTAVYYCARDGYSGLDVWGKGTTVTVSS
VL: B1 VL with T31S, A50G, R55Q, N93S, T94V, T97S
B8: G2(1H10) scFv (scFv, V domains shown)
VH: QVQLVQSGAEVKKPGASVKVSCKASGGTFSSYAISWVRQAPGQGLEWMGWINPNNGGTNYAQKFQGRVTMTRDTSTSTVYMELSSLRSEDTAVYYCARDSGVGMDVWGQGTTVTVSS
VL: B1 VL with T31K, R55Q, N93S, T94A, L104V
B9: G2(2C11) scFv (scFv, V domains shown)
VH: QVQLVQSGAEVKKPGASVKVSCKASGGTFNNYAFSWVRQAPGQGLEWMGWINPNSGGTNYAQKFQGRVTMTRDTSTSTVYMELSSLRSEDTAVYYCARDGVAVASDYWGQGTLVTVSS
VL: B1 VL with S28G, T31N, W32Y, S53T, R55Q, N93S, T94V, T97S
B10: G2(1C09) scFv (scFv, V domains shown)
VH: QVQLVQSGAEVKKPGASVKVSCKASGYTFSSYNMHWVRQAPGQGLEWMGWINGNTGGTNYAQKFQGRVTMTRDTSTSTVYMELSSLRSEDTAVYYCARGVNVDDFDYWGQGTLVTVSS
VL: B1 VL with S28T, T31N, W32Y, A34N, S53N, R55Q, N93S, Y96Q, L104V
B11: G2(1A10) scFv (scFv, V domains shown)
VH: QVQLVQSGAEVKKPGASVKVSCKASGGTFSSYAFSWVRQAPGQGLEWMGWINPDTGYTRYAQKFQGRVTMTRDTSTSTVYMELSSLRSEDTAVYYCARGDYTGNWYFDLWGRGTLVTVSS
VL: DIQMTQSPSSLSASVGDRVTITCRASRDIGRAVGWYQQKPGKAPKLLIYAASSLQSGVPSRFSGSGSGTDFTLTISSLQPEDFATYYCQQLDSYPFTFGPGTKVDIK
B12: G2(1D07) scFv (scFv, V domains shown)
VH: QVQLVQSGAEVKKPGASVKVSCKASGYTFTSYGISWVRQAPGQGLEWMGWISAYNGYTNYAQNLQGRVTMTRDTSTSTVYMELSSLRSEDTAVYYCARDQFYGGNSGGHDYWGQGTLVTVSS
VL: B1 VL with R24Q, S28D, T31N, W32Y, A34N, R55Q, N93S, Y96L, Q100G
B13: G2(1E05) scFv (scFv, V domains shown)
VH: QVQLVQSGAEVKKPGASVKVSCKASGYTFTDYNMHWVRQAPGQGLEWMGWMNPNSGGTNYAQKFQGRVTMTRDTSTSTVYMELSSLRSEDTAVYYCAREEDYWGQGTLVTVSS
VL: B1 VL with S30G, T31R, R55Q, N93S, T97S, L104V
B14: G2(1D03) scFv (scFv, V domains shown)
VH: QVQLVQSGAEVKKPGASVKVSCKASGYTFTRYTINWVRQAPGQGLEWMGWINPNSGGANYAQKFQGRVTMTRDTSTSTVYMELSSLRSEDTAVYYCARGDWFDPWGQGTLVTVSS
VL: B1 VL with S53T, R55Q, N93S, G99A
B15: G2(1G12) scFv (scFv, V domains shown)
VH: B14 VH with R31S, T33L, I34M, N35H, N52S, A58T
VL: B1 VL with R24Q, S28D, T31N, W32Y, A34N, A50G, S53R, R55Q, N93S
B16: G2(2H11) scFv (scFv, V domains shown)
VH: B14 VH with T30S, R31D, T33Y, I34V, N35H, A58T, D100E
VL: B1 VL with T31S, S53T, R55Q, N93S, Y96F, Q100P, L104V, E105D
B17: G2(1C03) scFv (scFv, V domains shown)
VH: B14 VH with R31T, T33Y, I34M, N35H, A58T, G99S
VL: DIQMTQSPSSLSASVGDRVTITCRASQSVSNWLAWYQQKPGKAPKLLIYAASSLQSGVPSRFSGSGSGTDFTLTISSLQPEDFATYYCQQSYSTPTFGQGTKLEIK
B18: G2(1G07) scFv (scFv, V domains shown)
VH: B8 VH with S31N, S35N, N52S, N54Y, N55S, V102S, G103Y, M104F, V106Y, T112L
VL: DIQMTQSPSSLSASVGDRVTITCQASQDISNYLNWYQQKPGKAPKLLIYAASTLQSGVPSRFSGSGSGTDFTLTISSLQPEDFATYYCQQTYAIPLTFGGGTKVEIK
B19: G2(1F12) scFv (scFv, V domains shown)
VH: QVQLVQSGAEVKKPGASVKVSCKASGYTFTDYYMHWVRQAPGQGLEWMGWIYPNTGGTNYAQKFQGRVTMTRDTSTSTVYMELSSLRSEDTAVYYCARDYGGYVDYWGQGTLVTVSS
VL: B1 VL with R24Q, S28D, S30G, T31S, A51T, R55Q, N93S
B20: G2(1G03) scFv (scFv, V domains shown)
VH: EVQLLESGAEVKKPGASVKVSCKASGYTFTSYAMNWVRQAPGQGLEWMGWMNPNSGGTKYAQKFQGRVTMTRDTSTSTVYMELSSLRSEDTAVYYCAREGPAALDVWGQGTLVTVSS
VL: DIQMTQSPSSLSASVGDRVTITCRASQGISRWLAWYQQKPGKAPKLLIYAASTLQPGVPSRFSGSGSGTDFTLTISSLQPEDFATYYCQQSYIAPFTFGPGTKVDIK
B21: G2(2B08) scFv (scFv, V domains shown)
VH: QVQLVQSGAEVKKPGASVKVSCKASGYTLTSHLIHWVRQAPGQGLEWMGWINPNSGGTNYAQKFQGRVTMTRDTSTSTVYMELSSLRSEDTAVYYCARERRSGMDVWGQGTTVTVSS
VL: B18 VL with Q24R, D28G, N34A, T53R, Q55E, T91S, A93S
B22: G2(2A10) scFv (scFv, V domains shown)
VH: EVQLLESGAEVKKPGASVKVSCKASGYSFTDYIVHWVRQAPGQGLEWMGWINPYSGGTKYAQKFQGRVTMTRDTSTSTVYMELSSLRSEDTAVYYCARVLQEGMDVWGQGTLVTVSS
VL: B17 VL with V29I, N31S, W32Y, A34N, A50G, A51V, T94N, L103V
B23: G2(2D04) scFv (scFv, V domains shown)
VH: QVQLVQSGAEVKKPGASVKVSCKASGYTFSNFLINWVRQAPGQGLEWMGWINPNSGGTNYAQKFQGRVTMTRDTSTSTVYMELSSLRSEDTAVYYCASERELPFDIWGQGTMVTVSS
VL: B1 VL with T31S, L33V, A50G, S53N, R55E, N93S, T97S
B24: G2(1C06) scFv (scFv, V domains shown)
VH: QVQLVQSGAEVKKPGASVKVSCKASGYTFTDYQMFWVRQAPGQGLEWMGWINPNSGGTNYAQKFQGRVTMTRDTSTSTVYMELSSLRSEDTAVYYCAKGGGGYGMDVWGQGTTVTVSS
VL: B1 VL with S28G, T31N, W32Y, R55Q, N93S, T94D, P95Q, Y96W, L104V
B25: G2(2A09) scFv (scFv, V domains shown)
VH: QVQLVQSGAEVKKPGASVKVSCKASGGTFSSYAISWVRQAPGQGLEWMGWINPNSGGTNYAQKFQGRVTMTRDTSTSTVYMELSSLRSEDTAVYYCAAMGIAVAGGMDVWGQGTLVTVSS
VL: B1 VL with T31R, R55Q, N93L, T94P, T97S, L104V
B26: G2(1B08) scFv (scFv, V domains shown)
VH: QVQLVQSGAEVKKPGASVKVSCKASGYTFTNYHMHWVRQAPGQGLEWMGWIHPDSGGTSYAQKFQGRVTMTRDTSTSTVYMELSSLRSEDTAVYYCARNWNLDYWGQGTLVTVSS
VL: B1 VL with T31N, R55Q, D70Y, N93S, T94S
B27: G2(1E03) scFv (scFv, V domains shown)
VH: QVQLVQSGAEVKKPGASVKVSCKASGYTFTGYYMHWVRQAPGQGLEWMGWMNPNSGNTGYAQKFQGRVTMTRDTSTSTVYMELSSLRSEDTAVYYCATYDDGMDVWGQGTTVTVSS
VL: B1 VL with T31H, W32Y, A34N, A50G, R55Q, N93T, Y96W, K103R
B28: G2(2F01) scFv (scFv, V domains shown)
VH: QVQLVQSGAEVKKPGASVKVSCKASGYTFTSYYMHWVRQAPGQGLEWMGMINPRDDTTDYARDFQGRVTMTRDTSTSTVYMELSSLRSEDTAVYYCALSGNYYGMDVWGQGTTVTVSS
VL: DIQMTQSPSSLSASVGDRVTITCQASQDISNYLNWYQQKPGKAPKLLIYGASRLQSGVPSRFSGSGSGTDFTLTISSLQPEDFATYYCQEGITYTFGQGTKVEIK

Target: T1, HLA-A*01:01_… (HLA-PEPTIDE target G2), recombinant biotinylated complex (human, enzymatically biotinylated (BirA))
T1 construct: also called G2-pHLA
Assay: phage panning, scFv ELISA;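 note: scFv binders from three to four bead panning rounds, tested as PPEs by ELISA on streptavidin plates carrying peptide-HLA complex (2 µg/ml), detected via anti-V5 and HRP anti-mouse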
Method: Phage library screening was carried out according to the overall screening design described above. Three to four rounds of bead-based panning were performed to identify scFv binders to each peptide-HLA complex. For each round of panning, an aliquot of starting phage was set aside for input titering and the remaining phage was depleted three times against Dynabead M-280 streptavidin beads (Life Technologies) followed by a depletion against Streptavidin beads pre-bound with 100 μmoles of pooled negative peptide-HLA complexes. For the first round of panning, 100 μmoles of peptide-HLA complex bound to streptavidin beads was incubated with depleted phage for 2 hours at room temperature with rotation. Three five-minute washes with 0.5% BSA in 1×PBST (PBS+0.05% Tween-20) followed by three five-minute washes with 0.5% BSA in 1×PBS were utilized to remove any unbound phage to the peptide-HLA complex bound beads. To elute the bound phage from the washed beads, 1 ml 0.1M TEA was added and incubated for 10 minutes at room temperature with rotation. The eluted phage was collected from the beads and neutralized with 0.5 ml 1M Tris-HCl pH 7.5. The neutralized phage was then used to infect log growth TG-1 cells (OD₆₀₀=0.5) and after an hour of infection at 37° C., cells were plated onto 2YT media with 100 μg/ml carbenicillin and 2% glucose (2YTCG) agar plates for output titer and bacterial growth for subsequent panning rounds.
96-well and/or 384-well streptavidin coated plates (Pierce) were coated with 2 μg/ml peptide-HLA complex in HLA buffer and incubated overnight at 4° C. Plates were washed three times between each step with PBST (PBS+0.05%). The antigen coated plates were blocked with 3% BSA in PBS (blocking buffer) for 1 hour at room temperature. After washing, scFv PPEs were added to the plates and incubated at room temperature for 1 hour. Following washing, mouse anti-v5 antibody (Invitrogen) in blocking buffer was added to detect scFv and incubated at room temperature for 1 hour. After washing, HRP-goat anti-mouse antibody (Jackson ImmunoResearch) was added and incubated at room temperature for 1 hour.

Row | Binder | binding result
1 | B1 | binds
2 | B2 | binds
3 | B3 | binds
4 | B4 | binds
5 | B5 | binds
6 | B6 | binds
7 | B7 | binds
8 | B8 | binds
9 | B9 | binds
10 | B10 | binds
11 | B11 | binds
12 | B12 | binds
13 | B13 | binds
14 | B14 | binds
15 | B15 | binds
16 | B16 | binds
17 | B17 | binds
18 | B18 | binds
19 | B19 | binds
20 | B20 | binds
21 | B21 | binds
22 | B22 | binds
23 | B23 | binds
24 | B24 | binds
25 | B25 | binds
26 | B26 | binds
27 | B27 | binds
28 | B28 | binds
